The data set is described as follows: label from the status in PepcDB records.
As to “MSMLKKTKEFFGLAPYEAEHEDAYYADEPRYEGTAAYAPEYRERDYGYAPEAPAPVAPSPAPRSYQSTIVPVELHSFEDAQVIGGAFRDGDAVVFDMSLLSREEARRIVDFAAGLCFALRGKMQKIDSVTFAVVPELSNISTSELERAARIRLEHHHHHH”, the protein production entry is reported as “not failed”.
On to “MSNAITMGIFWHLIGAASAACFYAPFKKVKKWSWETMWSVGGIVSWIILPWAISALLLPNFWAYYSSFSLSTRLPVFLFGAMWGIGNINYGLTMRYLGMSMGIGIAIGITLIVGTLMTPIINGNFDVLISTEGGRMTLLGVLVALIGVGIVTRAGQLKERKMGIKAEEFNLKKGLVLAVMCGIFSAGMSFAMNAAKPMHEAAAALGVDPLYVALPSYVVIMGGGAIINLGFCFIRLAKVKDLSLKADFSLAKSLIIHNVLLSTLGGLMWYLQFFFYAWGHARIPAQYDYISWMLHMSFYVLCGGIVGLVLKEWNNAGRRPVTVLSLGCVVIIVAANIVGIGMAN”, for which the protein production result is “failed”.
To “MSNANQKITTFLMFEGKAEEAMNFYTSLFDQSEIVSISRYDENGPGKEGTVIHATFTLNGQEFMCIDSYVNHNFTFTPAMSLYVTCETEEEIDTVFHKLAQDGAILMPLGSYPFSKKFGWLNDKYGVSWQLTLAE” belongs “not failed”; to “MSNEHTRPPLPPFTRESAIEKVRLAEDGWNTREPEKIALAYTVDTQWRNRAEFANNREEARDFLTRKWKKELDYRLIKELWAFTDNRIAVRYAYEWHDDSGNWFRSYGNENWEFEADGLMHRRFACINDMPIKESERKFHWPLGRRPDDHPGLTELGLLEHHHHHH”, “failed”; to “MSNEMYYVQASDPAILEKGECGGAVTALFKYLLDKGIVDGVLALKKGVDVYDAIPTFVTSSEDLLSTAGSLHCAPTMWGGIIKEYLQDAKIAVPVKPCDMRAIVELAKRAQINLDNVYMIGLNCGGTVPPKTAMEMIKLFYEVDPKDVVKEEIDKGKFIIVMNDGSHKEVKMHDLEDNGYGRRVNCQRCDEKIPRKADIAAGNWGVIGEDAGKYTFMEVCTEKGKQLLEDAEKDGYIKKKSPNPKGIEIRAKVESSMLKMGEDYKNKWLEEEYPTIEEWNRQWNKCIKCYGCRDVCPVCFCRECALNADYLDSGSIPPNPIMFQGVRMSHMAFSCVNCGQCEDVCPMEIPVARIFHKVQEKTRKELGYRPGVDDEAPPALGGSCPTQ”, “failed”.
Next, “MSNGGLSIDEKEGLIDKDEVMIRRMKNRERQRRYRARKRMREEEAGNDDNLSFETMGKQEEEEEEDEGLEFNGPSGYVENFVRRVYCDRNWKKEARRAHLIMNKAQDSSCESVKRKIRPHRRDWKAEARKKKT”: “failed”.
“MSNGIVIIGSGFAARQLVKNIRKQDATIPLTLIAADSMDEYNKPDLSHVISQGQRADDLTRQTAGEFAEQFNLHLFPQTWVTDIDAEARVVKSQNNQWQYDKLVLATGASAFVPPVPGRELMLTLNSQQEYRACETQLRDARRVLIVGGGLIGSELAMDFCRAGKAVTLIDNAASILASLMPPEVSSRLQHRLTEMGVHLLLKSQLQGLEKTDSGIQATLDRQRNIEVDAVIAATGLRPETALARRAGLTINRGVCVDSYLQTSNTDIYALGDCAEINGQVLPFLQPIQLSAMVLAKNLLGNNTPLKLPAMLVKIKTPELPLHLAGETQRQDLRWQINTERQGMVARGVDDADQLRAFVVSEDRMKEAFGLLKTLPM”: the protein production result is given as “failed”.
Next, “MSNGTPQKTKLHFPHTYALIFFIIILAALASYFIPSGEFKRVEEDGQTVIVQGSYKQTDAGPVGFFEMFKAIPEGMIQSADIIFYIFLIGGAFGIIHQTGMIRAGVHVLVQRLKKRGFLLIPVTMFVFSIGGATIGLSEETIIFIPIGIAVARALGYDSMTGLAMISLGAAAGFTGGMLNPFTVGIAQTIAEVPVFSAFGYRLAVYAAMLGFSIFYVMRYAQQVKAHPNTGLMYGSETEINEETAAGHADLSFTGRHGLVLLITALGFGINMFGVFQWGWFLSELSAGFLIIGFAAGLAGGRGINNTFHSFVDGMKQVVYGALIVGFARAIVIVLENGHIIDTIINSLASAISSLPNEISAIGMFAVQIAINTFIPSGSGQAATTMPLMAPLADLLGFERQIAVFAYQYGDGITNSIIPTSGVLLASLSIAGVPYERWVKFVWKLIAGWIIIGAAAIVIAMIIGIK”: “failed”.
On to “MSNIECVMFDCDGTLVDSEVLCCRAYVVMFAHYDIHLSLEEVIKRFKGVKLNEIVARVSQENGLDEPIEKLEKLYRAEVARLFDAELQPIAGAKALLEQITLPVCVVSNGPVSKMQHSLGLTGLLPFFEDKLYSGYDIQRWKPDPTLIYHAAEKMHVAAERCILVEDSAAGTHAGIAAGIPVYYYCADPHNQPIHHPLVTMFDDMQQLPDLWRERGWQITSH”, for which the protein production result is “failed”.
As for “MSNKLLLVFALIGIIVVFSCGLFLPIPIGYRVSMLTAGVIMSVVFSIIIPFDRKHIVRKKGNKIDFTKTKVYFRWNVFDTISVCLALYACICVQVLIFLVPMGFTIQNPYVQFFTNQSQLWVFIAIAYLISRISLTLKGIKEIKNHGADWD”, the protein production entry is “failed”.
Turning to “MSNKPASQQTRLTDWLIFLAVPFFFSSNVIFGRGVVGEVSPFIAAFIRWMGSTLIIAPFMIADWRNCLAFVRDKMLLWLVLGILGMGICGGVVYWGLTMTTAANGTLIYTTSSLFIILFQRIFQGRPIRKLEVAGMVIAFAGVAAIVLKGDISALRHMNFNIGDFAILTAAIAFAIYSLLLRDPAARQMASFSLFGLIAFSGALVLLPPAALELAQGGMLPATGAAWAKIGGIILFASLLAFYCFTHTVRVFGPATAGITLYMMPPVSILMATIFLGETFETYHAIGIVLVTGGVILATAPIGRKR”, the protein production result is recorded as “failed”.
To “MSNLISRILTALIFGFITLCLTWVGGTLFFLFVWVIGGFILYEWMSITKEKWHVLQKILASVFYLVFGAFLISNASASLIFCILIALAALLAIGPMRKSVWVFFGFLYVCFPVVALSFLRGHEPLGFWVVIFLFTIVWGTDIAGYFSGRAFGGPKLAPQFSPNKTWMGAIGGTFVGVSGGILIAFQFFDLNSAVFFVLLLALILSIVSQMSDLGQSWLKRQFSVKDSGSLLPGHGGFMDRMDGLVGAAFLLYLIGSFMSNMDTPFNLFCMV” belongs “failed”.
To “MSNMEKHLFNLKFAAKELSRSAKKCDKEEKAEKAKIKKAIQKGNMEVARIHAENAIRQKNQAVNFLRMSARVDAVAARVQTAVTMGKVTKSMAGVVKSMDATLKTMNLEKISALMDKFEHQFETLDVQTQQMEDTMSSTTTLTTPQNQVDMLLQEMADEAGLDLNMELPQGQTGSVGTSVASAEQDELSQRLARLRDQV” belongs “not failed”; to “MSNNSKISWTTTTWNVTAGCDPISDGCKNCYARMMAERLKAMGQAKYQNGFIPTIHSECLNEPFGWKGNKLVFVVSMGDLFHKDIPFDFIDKVIEVITKCPQHTFQILTKRAERMYEYFSTHAIPENVWLGVTVENQKVKGRIDYLKKLDAPVRFLSCEPLLEDLGTLDLSDIDWVIVGGESGNRARKVEKDWILNIKSQCDASTSTAFFFKQWGTWGADGVKRSAKENGCLLDGKEYHAYPTPRKIKPLEHHHHHH”, “not failed”; to “MSNSMLDKNKAILTGGGALLLGLIVLFYLAYRPKAEVLQGFLEAREYSVSSKVPGRIEKVFVKKGDHIKKGDLVFSISSPELEAKLAQAEAGHKAAKALSDEVKRGSRDETINSARDVWQAAKSQATLAKETYKRVQDLYDNGVASLQKRDEAYAAYESTKYNESAAYQKYKMALGGASSESKIAAKAKESAALGQVNEVESYLKDVKATAPIDGEVSNVLLSGGELSPKGFPVVLMIDLKDSWLKISVPEKYLNEFKVGKEFEGYIPALKKSTKFRVKYLSVMGDFATWKATNNSNTYDMKSYEVEAIPLEELENFRVGMSVLVTIKP”, “failed”.

Values taken from a protein production outcome set (Wang et al. 2014).
